B1: TPR t1 (parent)
chain: GACCAAUCUGCCCUCAGAGCUCGAGAACAUCUUCGGAUGCAGAGGAGGCAGGCUUCGGUGGCGCGAUAGCGCCAACGUCCUCAACCUCCAAUGCAUCCCACCACAUGAUGAUGCCUGAAGAGCCUUGGUUUUUUG

Variants of: B1
Test: polymerase ribozyme fitness, log enrichment relative to wild type (log ratio); higher = more active; in vitro selection for triplet polymerase activity
In short: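 Libraries of mutants in each subunit of a heterodimeric triplet polymerase ribozyme were generated by PCR and transcribed. In triplicate, each went through one in vitro selection round: annealing with biotinylated primer, partner subunit and triplets; frozen incubation at −7 °C; gel excision of extended constructs; streptavidin-bead capture; RT-PCR. Fitness, taken from Illumina sequencing of input and output libraries, is the logarithm of a genotype's enrichment over wild-type enrichment, averaged across replicates with inverse-variance weights. The logarithm is base 2, and genotypes needed ≥10 input reads and ≥1 read per output to be kept.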

Point of comparison: GACCAAACUGCGCUCAGAGCUCGAGAACAUCUUCGGAUGGAGAGGAGGCAGGCUUCGGUGGCGCGAUAGCGCCAACGUCCUCAACCUCCAAUGCAUCCCACCACACGAUGAUGGCUGAAGAGCCUUGGUUUUUUG, “polymerase ribozyme fitness (log ratio)” value -5.02. Against it:
- GACCAUUCUGCCCUCAGAGCUCGAGAACAUCUUCGGAUGCAGAGGAGGCAGGCUUCGGUGCCGCGAUAGCGCCAACGUCCUCAACCUCCAAUGCAUCCCACCACAUGAUGAUGCCUGAAGAGCCUUGGUUUUUUG — higher, -1.18
- GACCAAACUGCCCUCAGAGCUCGAGAACAUCUUCGGAUGCAGAGGGGGCAGGCUUCGGUGGCGCGAUAGUGCCAACGUCCUCAACCUCCAAUGCAUCCCACCACAUGAUGCUACCUGAAGAGCCUUGGUUUUUUG — higher, -3.8
- GACCAAACUGCUCUCAGAGCUCGAGAACAUCUUCGGAUGCAGAGGAGGCAGGCUUCGGUGGCGCGAUAGCGCCAACGUCCUCAACCUCCAAUGCAUCCCACCACAUGAUGAUCCCUGAAGAGCCUUGGUUUUUUG — higher, -2.14
- GACCAAACUGCCCUCAGAGCUCGAGAACAUCUUCGGAUGCAGAGGAGGCAGGCUUCGGUGGCGCGAUAGCGCCAACGUCCUCAACCUCCAAUGCAUCCCACCACUUGAUGAUGCUUGAAGAGCCUUGGUUUUUUG — higher, -3.4
- GACCAAAAUGCCUUCAGAGCUCGAGAACAUCUUCGGAUGCAGAGGAGGCAGGCUUUGGUGACGCGAUAGCGCCAACGUUCUCAACCUCCAAUGCAUCCCACCACAUGAUGAUGCCUGAAAAGCCUUGGUUUUUUG — within 0.2 log units, -4.91
- GACCAUUCUGCCCUCAGAGCUCGAGAACAUCUUCGGAUGCAGAGGAGGCAGGCUUCGGUAGCGCGAUAGCGCCAACGUCCUGAACCUCCAAUGCAUCCCAUCACAUGAUGAUGCCUGAAAAGCCUUGUUUUUUUG — higher, -2.36
- GACCAUUCUGCCCUCAGAGCUCGAGAACAUCUUCGGAUGCAGAGGAGGCAGUGUUCGGUGGCGCGAUAGUGCCAACGUCCUCAACCUCCAAUGCAUCCCACCACAUGAUGAUGCCUGAAGAGCCUUGCUUUUUUG — higher, -2.99
- GACCAAACUGACCGCAGAGCUCGAGAACAUCUUCGGAUGCAGAGUAGGCAGGUUUCGGUGGCGCGAUAGAGCCAACGUCCUCAACCUCCAAUGCAUCCCACCACAUGAUGAUACCUGAAUAGCCUUGGUUUUAUG — higher, -4.43
- GACCAUCCUGCCCUCAGAGCUCGAGAACAUCUUCGGAUGCGGAGGAGGCAGGCUUCGGUGGCGCGAUAGCGCCAACGUCCUCAACCUCCAAUGCAUCCCACCACAUGAUAAUGCCUGAAGAGCCUUGGUUUUUUG — higher, -1.88
- GACCAUUCUGCCCUCAGAGCUCGAGAACAUCUUCGGAUGCAGAGGAGACAGGCUUCGGUGGCGCGAUGGCGCCAACGUCCUCAACCUCCAAUGCAUCCCACCACAUGAUGAUGCCUGAAGAGACUUGGUUUUUUG — higher, -2.21
- GACCAUUCUGCCCUCAGAGCUCGAGAACAUCUUCGGAUGCAGAGGAGGCAGGCUUCCGUGGCACGAUAGCGCCAACGUCCUCAACCUCCGAUGCAUCCCACCACAUGAUGAUGCCUGAAGAGCCUUGGUUUUUUG — higher, -0.878
- GACCAAACUGCCUUUAGAGCUCGAGAACAUCUUCGGAUGCAGAUGAGGCAGGCUUCGGCGGCGCGAUAGCGCCAACUUCCUCAACCUCCAAUGCAUCCCACCACAUGAUGAUGCCUGAAGAGCCUUGGUUUUUUG — higher, -2.18
- GACCAAACUGCUCUCAGAGCUCGAGAACAUCUUCGGAUGCAGUGGAGGAAGGCUUCGGUGGCGCGAUAGCGCCAACGUCCUCAACCUCCAAUGCAUCCCACCACAUGAUGAUGGCUGAAGAGCCUUGGUUUUUUG — higher, -1.69
- GACCAUUCUGCCCUCAGAGCUCGAGAACACCUUCGGAUGCAGAGGAGGCAGGCUUCGGUGGCGCGAUAGCGCCAACGUCCUCAACCUCCAAUGCAUCCCACCACAUGAUGAUGCCUGAAGAGCCUUGGUUUUUUG — higher, -2.71
- GACCAAACUGCCCUCAGAGCUCGAGAACAUCUUCGGAUGCAGAGGAGGCAGGCUUCGGUGGCGCGAUAGCGCCAACGUCCUCAACCUCCAAUGCAUCCCACCCCAUGAUGAUGCCUGAAGAGCCUUGGUUUUUUG — higher, -4.75
- GACCAUUCUGCCCUCAGAGCUCGAGAACAUCUUCGGAUGCAGAGGAGGCAGGCUUCGGUGGCGCGAUAGCGCCAACGUCCUCAACCUCCAAUGCAUCCCACCACAUGAUUAUGCCUGAAGAGCCUUGGUUUUUUG — higher, -1.36
- GACCAUUCCGCCCUCAGAGCUCGAGAACAUCUUCGGAUGCAGAGGAAGCAGGCUUCGGUGGCGCGAUAACGCCAACGUCCUCAACCUCCAAUGCAUCCCACCACAUGAUGAUGCCUGAAGAGCCUUGGUUUUUUG — higher, -2.93
- GACCAAAAUGCCCUCAGAGCUCGAGAACAUCUUCGGGUGCAGAGGAGGCAGGCUUCGGGGGUGCGAUAGCGCCAACGUCCUCAACCUUCAAUGCAUCCCACCACAUGAUGAUCCCUGAAGAGCCUUGGUUUUUUG — higher, -3.69
- GACCAAACUGACCUCAGAGCUCGAGAACAUCUUCGGAUGCAGAGGAGGCAGGCUUCGGUGGCGCGAUAGCGCCAACGUCCUCAACCUCCAAUGCAUCCCAUCACAUGAUGAUGCCUGAAGAUCCUUGGUUUUUUG — higher, 0.139
- GACCAUUCUGCCCUCAGAGCUCGAGAACAUCUUCGGAUGCAGAGGAGGCAGGCUUCGGUGGCGCGAUAGCGCCAACGUCCUCAACCUCCAAUGCAUCCCACCACAUGAUGAUCCCUGAAGAGCCUUGGUUUUUUG — higher, -2.6
- GACCAUUCUGCCCUCAGAGCUCGAGAACAUCUUCGGAUGCAGAGGAGGCAGGCUUCGGUGGCGCGAUAGCGCCAACGUCCUCAACCUCCAAUGCAUCCCACCACAUGAUGAUACCUGAAGAGCCUUGGUUUUUUG — higher, -1.07
- GACCAUUCUGCCCUCAGAGCUCGAGAACAUCUUCGGAUGCAGAGGAGGCAGGCUUCGGUGGCGCGAUAGCGCCAACGUCCUCAACCUCCAAUGCAUCCCACCACAUGAUGAUGCCUGAAGAGCCUUGGUUUUUUU — higher, -0.769
- GACCAUCCUGCCCUCAGAGCUCGAGAACAUCUUCGGAUGCAGAGGAGGCAGGCUUCGGUGGCGCGAUAGAGCCAAGGUCCUCAACCUCCAAUGCAUCCCACCACAUGAUGAUGCCUGAAGAGCCUUGGUUUUUUG — higher, -2.57
- GACCAUUCUGCCCUCAGAGCUCGAGAACAUCUUCGGAUGCAGAGGAGGCAGGCUUCGGUGGCGCGAUAGCGCCAACGUCCUCAACCUCCAAUCCAUCCCACCACAUGAUGAUGCCUGAAGAGCCUUGGUUUUUUG — higher, -0.28
- GACCAUUCUGCCCUCAGAGCUCGAGAACAUCUUCGGAUGCAGAGGAGGCAGGCUUCGGUGGCGCGAUAUCGCCAACGUCCUCAACCUCCAAUGCAUCCCACCACAUGAUGAUGCCUGAAGAGCCUUGGUUUUUUG — higher, 0.777
- GACCAAACUGCCCUCAGAGCUCGAGAUCAUCUUCGGAUGCAGAGGAGUCAGGCUUCGGUGGCGCGAUAGCGCCAACGUCCUCAACCCCCAAUGCAUCCCACCACAUGAUGAUGCCUGAAUAGCCUUGGUUUUUUG — higher, -2.16
- GACCAUUCUGCCCUCAGAGCUCGAGAACAUCUUCGGAUGCAGAGGAGGCAGGCUUCGGUUGCGUGAUAGCGCCAACGUCCUCAACCUCCAGUGCAUCCCACGACAUGAUUAUGCCUGAAGAGCCUUGGUUUUUUG — lower, -7.78
- GACCAAACUGCCCUCAGAGCUCGAGAACAUCUUCGGAUGCAGAGGAGGCUGGCUUCAGUGGCGCGAUAGCGCCAACGUCCUCUACCUCCAAUGCAUCCCACCACAUGAUGAUGCCUGAAGAGCCUUGGUUUUUUG — higher, -1.44
- GACCAAAUUGCCCUCAGAGCUCGAGAACAUCUUCGGAUGCAGAGGAGGCAGGCUUCGGUGGCGCGAUAGCGCCAACGUCCUCAACCUCCAAUGCAUCCCACCACAUCAUGAUGCCUGAAGAGCUUUGGUUUUUUG — higher, -4.43
- GACCAUUCUGCCCUCAGAGCUCGAGAACAUCUUCGGAUGCAGAGGAGGCAGGCUUCGGUGGCUCGAUAGCGCCAACGCCCUCAACCUCCAAUGCAUUCCACCACAUGAUGAUGCCUGAACAGCCUUGGUUUUUUG — higher, -3.08
- GACCAUUCUGCCCGCAGAGCUCGAGAACAUCUUCGGAUGCAGAGGAGGCAGGCUUCGGUGGCGCGAUAGCGCCAACGUCCUCAACCUCCAAUGCAUCCCACCACAUGAUGAUGCCUGAAGAGCCUUGGUUUUUUG — higher, -1.38
- GACCAAACUGCCUUCAGAGCUCGAGAACAUCUUCGGAUGCUGAGGAGGCAGGCUUCGGUGGCGCGAUAGCGCCAACGUCCUAAACCUCCAAUGCAUCCCACCACAUGAUGAUGCCUGAAGAGCCUUAGUUUUUUG — higher, -2.71
- GACCAUUCUGCCCUCAGAGCUCGAGAACAUCUUCGGAUGCAGAGGAGGCAGGCUUCGGUGGCGCGAUAACGCCAACGUCCUCAACCUCCAAUGCAUCCCACCACAUGAUGAUGCCUGAAGAGCAUUGGUUUUUUG — higher, -1.22
- GACCAAACUGCCGUCAGAGCUCGAGAACAUCCUCGGAGGCAGAGGAGGCAGGCUUCGGUGGCCCGAUAGCGCCAACGUCCUCAACCUCCAAUGCAUCCCACCACAUGAUGAUGCCUGAAGAGCCUUGGUUUUUUG — higher, -2.61
- GACCAAAUUGCCCUCAGAGCUCGAGAACAUCUUCGGAUGCAGAGGAGGCAGGCUUCGGUGUCGCGAUAGCGCCAACGUCCUCAACCUCCAAUGCAUCCCACCACAUGAUGAUGCCUGAAGAGCCUUGGUUUUUUG — higher, 0.322
- GACCAUUCUGCCCUCAGAGCUCGAGAACAUCUUCGGAUGCAGAGGAGGCAGGCUUCGGUGGCGCGAUAGCGCCAACGGCCUCCACCUCCAAUGCAUCCCACCACAUGAUGAUGCCUGAAGAGCCUUGGUUUUUUG — higher, -0.41
- GACCAUUCUGCCCUCAGAGCUCGAGAACAUCUUCGGAUGCAGAGGAGGCAGUGUUCGGUGGCGCGAUAGCGCCAACGUCCUCAACCUCCAAUGCAUCCCACCACAUGAUGAUGCCUGAAGAGCCUUGCUUUUUUG — higher, -3.38
- GACCAUUCUGCCCUCAGAGCUCGAGAACACCUUCGGAUGCAGAGGAGGCAGGCUUCGGUGGCGCGAUAGCGCCAACGUCCUCAACCUCCAAUUCAUCCCACCACAUGAUGAUGCCUGAAUAGCCUUGGUUUUUUG — higher, -3.6
- GACCAUUCUGCCCUCAGAGCUCGAGAACAUCUUCGGAUGCAGAGGAGGCAGGCUCCGGUGGCGCGAUAGCGCCAAUGUCCUCAACCUCCAAUGCAUCCCACCACAUGAUGAUGCCUGAAGAGCCUUGGUUUUUUG — higher, -0.164
- GACCAUUCUGCCCUCAGAGCUCGAGAACAUCUUCGGAUGCAGAGGAGGCAGGCUUCGGUCGCGCGAUAGCGCCAACGUCCUCAACCUCCAAUGCAUCCCACCACAUGAUGAUGCCUGAAGAGCCUUGGUUUUUUG — higher, 0.0676
- GACCAUUCUGCCCUCAGAGCUCGAGAACAUCUUCGGAUGCAGAGGAGGCAGGCUUCGAUGGCGCGAUAGCGCCAACGUCCUCUACCUCCAAUGCAUCCCACCACAAGAUGAUGCCUGAAGAGCCUUGGUUUUUUG — higher, 0.545

Source: the RNAGym collection of RNA variant scans (doi:10.1073/pnas.2313332121)
